Data on two molecules can be found in PMC5544124 (Methods in enzymology, 2015).

B1: human apo-SUN2 (residues 522-717) (domain or fragment, UniProt Q9UH99 522-717, looked up)
chain: GVTEEQVHHIVKQALQRYSEDRIGLADYALESGGASVISTRCSETYETKTALLSLFGIPLWYHSQSPRVILQPDVHPGNCWAFQGPQGFAVVRLSARIRPTAVTLEHVPKALSPNSTISSAPKDFAIFGFDEDLQQEGTLLGKFTYDQDGEPIQTFHFQAPTMATYQVVELRILTNWGHPEYTCIYRFRVHGEPAH

The series “SEC” deals with the molecule itself. Kind of series: SEC. A general note: SEC sorts molecules by how far they enter the pores of the column.
For series [1], the target named is B1. The experiment in a line: SEC.

In general, stoichiometry N refers to the number of molecules, sites or subunits per partner or assembly. B1: the “stoichiometry N” value in “SEC” amounted to 3. Take TQANNFARSFYPMLRYTNGPPPT (peptide, UniProt Q8WXH0 6863-6885, looked up) [6xHis-sfGFP-KASH2 polypeptide (KASH2 residues 6863-6885)]: in series [1], the binding result was “binds”.
